Molecular target: TCR 868 (single-chain Vbeta-linker-Valpha)
Experiment: not given
Settings: higher = more enriched with TCR 868 than with the control TCR A6; not monotonic in affinity (misses both ways); scale: ratio: mean frequency with TCR 868 / mean frequency with control TCR A6, each normalised to the 3* stop peptide; numbering: sequential-on-construct, sequence starts at 1

In order of falling screen value:
1. SL9 peptide (HIV-1 Gag, […]) presented by HLA-A*02:01 3T (SLTNTVATL; codon ACT)  1.11
2. SL9 peptide (HIV-1 Gag, […]) presented by HLA-A*02:01 3T (SLTNTVATL; codon ACG)  1.07

Molecular target: TCR 868 (single-chain Vbeta-linker-Valpha)
Experiment: YAMTAD: yeast mating between pMHC-displaying and TCR-displaying yeast, diploid selection, deep sequencing; 3 biological x 4 technical repeats
Settings: S. cerevisiae mating; TCR 868 group vs control TCR A6 group; higher = more enriched with TCR 868 than with the control TCR A6; not monotonic in affinity (misses both ways); not an affinity; keep out of graded; partner unresolved; scale: ratio: mean frequency with TCR 868 / mean frequency with control TCR A6, each normalised to the 3* stop peptide; numbering: sequential-on-construct, sequence starts at 1

In order of falling screen value:
1. SL9 peptide (HIV-1 Gag, […]) presented by HLA-A*02:01 3L (SLLNTVATL; codon CTT)  2.02
2. SL9 peptide (HIV-1 Gag, […]) presented by HLA-A*02:01 3F (SLFNTVATL; codon TTT)  2.02
3. SL9 peptide (HIV-1 Gag, […]) presented by HLA-A*02:01 3L (SLLNTVATL; codon CTG)  1.89
4. SL9 peptide (HIV-1 Gag, […]) presented by HLA-A*02:01 3L (SLLNTVATL; codon TTG)  1.84
5. SL9 peptide (HIV-1 Gag, […]) presented by HLA-A*02:01 3I (SLINTVATL; codon ATT)  1.28
6. SL9 peptide (HIV-1 Gag, […]) presented by HLA-A*02:01 3H (SLHNTVATL; codon CAT)  1.25
7. SL9 peptide (HIV-1 Gag, […]) presented by HLA-A*02:01 3K (SLKNTVATL; codon AAG)  1.21
8. SL9 peptide (HIV-1 Gag, […]) presented by HLA-A*02:01 3W (SLWNTVATL; codon TGG)  1.2
9. SL9 peptide (HIV-1 Gag, […]) presented by HLA-A*02:01 3Q (SLQNTVATL; codon CAG)  1.16
10. SL9 peptide (HIV-1 Gag, […]) presented by HLA-A*02:01 3M (SLMNTVATL; codon ATG)  1.16
11. SL9 peptide (HIV-1 Gag, […]) presented by HLA-A*02:01 3V (SLVNTVATL; codon GTT)  1.16
12. SL9 peptide (HIV-1 Gag, […]) presented by HLA-A*02:01 3D (SLDNTVATL; codon GAT)  1.15
13. SL9 peptide (HIV-1 Gag, […]) presented by HLA-A*02:01 3A (SLANTVATL; codon GCT)  1.12
14. SL9 peptide (HIV-1 Gag, […]) presented by HLA-A*02:01 3V (SLVNTVATL; codon GTG)  1.11
15. SL9 peptide (HIV-1 Gag, […]) presented by HLA-A*02:01 3C (SLCNTVATL; codon TGT)  1.1
16. SL9 peptide (HIV-1 Gag, […]) presented by HLA-A*02:01 3R (SLRNTVATL; codon CGG)  1.09
17. SL9 peptide (HIV-1 Gag, […]) presented by HLA-A*02:01 3S (SLSNTVATL; codon AGT)  1.08
18. SL9 peptide (HIV-1 Gag, […]) presented by HLA-A*02:01 3S (SLSNTVATL; codon TCT)  1.08
19. SL9 peptide (HIV-1 Gag, […]) presented by HLA-A*02:01 3S (SLSNTVATL; codon TCG)  1.06
20. SL9 peptide (HIV-1 Gag, […]) presented by HLA-A*02:01 3R (SLRNTVATL; codon AGG)  1.06
21. SL9 peptide (HIV-1 Gag, […]) presented by HLA-A*02:01 3R (SLRNTVATL; codon CGT)  1.04
22. SL9 peptide (HIV-1 Gag, […]) presented by HLA-A*02:01 3P (SLPNTVATL; codon CCG)  1.03
23. SL9 peptide (HIV-1 Gag, […]) presented by HLA-A*02:01 3A (SLANTVATL; codon GCG)  1.01
24. SL9 peptide (HIV-1 Gag, […]) presented by HLA-A*02:01 3N (SLNNTVATL; codon AAT)  0.989
25. SL9 peptide (HIV-1 Gag, […]) presented by HLA-A*02:01 3P (SLPNTVATL; codon CCT)  0.983
26. SL9 peptide (HIV-1 Gag, […]) presented by HLA-A*02:01 3G (SLGNTVATL; codon GGT)  0.969
27. SL9 peptide (HIV-1 Gag, […]) presented by HLA-A*02:01 3E (SLENTVATL; codon GAG)  0.967
28. SL9 peptide (HIV-1 Gag, […]) presented by HLA-A*02:01 3G (SLGNTVATL; codon GGG)  0.959

Source: article PMC8979966
